Measurements reported in the supplement of paper PMC7125110.
± gives the standard error. For some assays here: Fewer inactive variants are shown than the library holds.

B1: glmS ribozyme (parent)
chain: AUAAAAGCGCCAGAACUACAGAAAUGUAGUUGACGAGGAGGAGGUUUAUCGAAUUUUCGGCGGAUGCCUCCAAA

Tests used:
Conditions in all cases: with glucosamine-6-phosphate
[1] = variants of: B1; assay: kcat; higher = faster cleavage; RNA array
Method in brief: (§1)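 E. coli RNA polymerase transcribed barcoded ribozyme variants in situ on sequenced MiSeq chips, which were tracked via a hybridised Cy3 probe at 37 °C. Tiles were imaged over ~14 h after glucosamine-6-phosphate (40 μM to 10 mM) in HEPES/KCl/Mg(OAc)2 buffer was flowed in. Normalised per-tile medians were fit to one- or two-exponential decays for kobs, and kcat and KM came from weighted Michaelis–Menten fits.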

[2] = variants of: B1; assay: KM; higher = weaker cofactor use; RNA array
Method in brief: as §1

[3] = variants of: B1; assay: self-cleavage kobs at 40 uM GlcN6P; higher = faster cleavage; RNA array
Method in brief: as §1

[4] = variants of: B1; assay: self-cleavage kobs at 160 uM GlcN6P; higher = faster cleavage; RNA array
Method in brief: as §1

[5] = variants of: B1; assay: self-cleavage kobs at 2500 uM GlcN6P; higher = faster cleavage; RNA array
Method in brief: as §1

[6] = variants of: B1; assay: self-cleavage kobs at 10000 uM GlcN6P; higher = faster cleavage; RNA array
Method in brief: as §1

[7] = variants of: B1; assay: self-cleavage kobs at 640 uM GlcN6P; higher = faster cleavage; RNA array
Method in brief: as §1

## G37A G43U
[1]
  kcat: 4.94e-05 ± 4.8e-06 s⁻¹
[2]
  KM: 620 ± 300 µM
[3]
  self-cleavage kobs at 40 uM GlcN6P: < 1e-05 s⁻¹
[4]
  self-cleavage kobs at 160 uM GlcN6P: < 1e-05 s⁻¹
[5]
  self-cleavage kobs at 2500 uM GlcN6P: 4.23e-05 ± 7.6e-06 s⁻¹
[6]
  self-cleavage kobs at 10000 uM GlcN6P: 4.34e-05 ± 1.1e-05 s⁻¹

## G38U G51U
[1]
  kcat: < 1e-05 s⁻¹

## G35C G40U
[1]
  kcat: < 1e-05 s⁻¹
[3]
  self-cleavage kobs at 40 uM GlcN6P: < 1e-05 s⁻¹
[7]
  self-cleavage kobs at 640 uM GlcN6P: < 1e-05 s⁻¹
[5]
  self-cleavage kobs at 2500 uM GlcN6P: < 1e-05 s⁻¹
[6]
  self-cleavage kobs at 10000 uM GlcN6P: < 1e-05 s⁻¹

## G37A U65A
[1]
  kcat: 0.000179 ± 2.2e-05 s⁻¹
[2]
  KM: 4340 ± 1300 µM
[5]
  self-cleavage kobs at 2500 uM GlcN6P: 7.66e-05 ± 1.9e-05 s⁻¹
[6]
  self-cleavage kobs at 10000 uM GlcN6P: 0.000124 ± 1.4e-05 s⁻¹

## A36G U54G
[1]
  kcat: < 1e-05 s⁻¹
[3]
  self-cleavage kobs at 40 uM GlcN6P: < 1e-05 s⁻¹

## G37A A53C C71U
[1]
  kcat: 9.8e-05 ± 3.3e-06 s⁻¹
[2]
  KM: 1010 ± 85 µM
[7]
  self-cleavage kobs at 640 uM GlcN6P: 3.79e-05 ± 1.4e-05 s⁻¹
[5]
  self-cleavage kobs at 2500 uM GlcN6P: 6.98e-05 ± 1.5e-05 s⁻¹

## G38A G51U
[1]
  kcat: < 1e-05 s⁻¹
[3]
  self-cleavage kobs at 40 uM GlcN6P: < 1e-05 s⁻¹
[7]
  self-cleavage kobs at 640 uM GlcN6P: < 1e-05 s⁻¹
[6]
  self-cleavage kobs at 10000 uM GlcN6P: < 1e-05 s⁻¹

## A33U C61G
[1]
  kcat: < 1e-05 s⁻¹
[3]
  self-cleavage kobs at 40 uM GlcN6P: < 1e-05 s⁻¹
[6]
  self-cleavage kobs at 10000 uM GlcN6P: < 1e-05 s⁻¹

## C34G G38A C58A C68G
[1]
  kcat: 5.13e-05 ± 7.5e-06 s⁻¹
[7]
  self-cleavage kobs at 640 uM GlcN6P: 5.22e-05 ± 1.6e-05 s⁻¹
[5]
  self-cleavage kobs at 2500 uM GlcN6P: 4.79e-05 ± 1.7e-05 s⁻¹

## G37U U49A C61G C70G
[1]
  kcat: 2.13e-05 ± 6.5e-06 s⁻¹

## G32C C50G
[1]
  kcat: 5.17e-05 ± 1.5e-05 s⁻¹
[3]
  self-cleavage kobs at 40 uM GlcN6P: 4.21e-05 ± 1.5e-05 s⁻¹
[7]
  self-cleavage kobs at 640 uM GlcN6P: 6.25e-05 ± 2e-05 s⁻¹

## G32A U49G
[1]
  kcat: 5.97e-05 ± 1.4e-06 s⁻¹
[2]
  KM: 741 ± 85 µM
[3]
  self-cleavage kobs at 40 uM GlcN6P: < 1e-05 s⁻¹
[7]
  self-cleavage kobs at 640 uM GlcN6P: 2.83e-05 ± 1.2e-05 s⁻¹
[5]
  self-cleavage kobs at 2500 uM GlcN6P: 4.58e-05 ± 1.1e-05 s⁻¹
[6]
  self-cleavage kobs at 10000 uM GlcN6P: 5.56e-05 ± 8.3e-06 s⁻¹

## C34G G63U C68G
[1]
  kcat: 2.21e-05 ± 7.4e-06 s⁻¹

## G37U C61A
[1]
  kcat: 1.07e-05 ± 1.5e-06 s⁻¹
[6]
  self-cleavage kobs at 10000 uM GlcN6P: < 1e-05 s⁻¹

## A33U C50U G59U
[1]
  kcat: 1.02e-05 ± 3e-06 s⁻¹

## G32C C71G
[1]
  kcat: 1.39e-05 ± 7.5e-07 s⁻¹
[2]
  KM: 86.6 ± 35 µM

## G35C C58U
[1]
  kcat: < 1e-05 s⁻¹
[4]
  self-cleavage kobs at 160 uM GlcN6P: < 1e-05 s⁻¹
[7]
  self-cleavage kobs at 640 uM GlcN6P: < 1e-05 s⁻¹

## G38C C68G
[1]
  kcat: 1.31e-05 ± 3.9e-06 s⁻¹

## G32A U65A
[1]
  kcat: 0.000307 ± 0.0001 s⁻¹
[7]
  self-cleavage kobs at 640 uM GlcN6P: 5.66e-05 ± 1.2e-05 s⁻¹
[5]
  self-cleavage kobs at 2500 uM GlcN6P: 0.000104 ± 1.4e-05 s⁻¹
[6]
  self-cleavage kobs at 10000 uM GlcN6P: 0.000243 ± 4.4e-05 s⁻¹

## G32U U47A
[1]
  kcat: 0.000688 ± 0.00026 s⁻¹
[4]
  self-cleavage kobs at 160 uM GlcN6P: 5.78e-05 ± 1.8e-05 s⁻¹
[7]
  self-cleavage kobs at 640 uM GlcN6P: 8.3e-05 ± 2e-05 s⁻¹
[5]
  self-cleavage kobs at 2500 uM GlcN6P: 0.000375 ± 0.00014 s⁻¹
[6]
  self-cleavage kobs at 10000 uM GlcN6P: 0.000493 ± 0.00011 s⁻¹

## A36C C50U
[1]
  kcat: < 1e-05 s⁻¹
[3]
  self-cleavage kobs at 40 uM GlcN6P: < 1e-05 s⁻¹

## G37C C68G
[1]
  kcat: 1.8e-05 ± 3.8e-06 s⁻¹

## G38U C67G
[1]
  kcat: 1.53e-05 ± 7.3e-06 s⁻¹

## A33U U54A
[1]
  kcat: 0.000116 ± 2e-05 s⁻¹
[7]
  self-cleavage kobs at 640 uM GlcN6P: 6.35e-05 ± 1.7e-05 s⁻¹
[5]
  self-cleavage kobs at 2500 uM GlcN6P: 7.03e-05 ± 1.2e-05 s⁻¹
[6]
  self-cleavage kobs at 10000 uM GlcN6P: 0.000117 ± 1.6e-05 s⁻¹

## A33U U54G
[1]
  kcat: 0.000139 ± 4.4e-05 s⁻¹
[3]
  self-cleavage kobs at 40 uM GlcN6P: < 1e-05 s⁻¹
[4]
  self-cleavage kobs at 160 uM GlcN6P: < 1e-05 s⁻¹
[7]
  self-cleavage kobs at 640 uM GlcN6P: 4.57e-05 ± 1.6e-05 s⁻¹
[5]
  self-cleavage kobs at 2500 uM GlcN6P: 5.67e-05 ± 9.8e-06 s⁻¹
[6]
  self-cleavage kobs at 10000 uM GlcN6P: 0.000111 ± 1.8e-05 s⁻¹

## G38U C68G
[1]
  kcat: 0.000246 ± 5.7e-05 s⁻¹
[2]
  KM: 108 ± 52 µM
[3]
  self-cleavage kobs at 40 uM GlcN6P: 6.28e-05 ± 1e-05 s⁻¹
[4]
  self-cleavage kobs at 160 uM GlcN6P: 0.000349 ± 0.00017 s⁻¹
[7]
  self-cleavage kobs at 640 uM GlcN6P: 0.000294 ± 4.2e-05 s⁻¹
[6]
  self-cleavage kobs at 10000 uM GlcN6P: 0.000182 ± 4e-05 s⁻¹

## A33C U46A
[1]
  kcat: 3.08e-05 ± 7.5e-06 s⁻¹
[4]
  self-cleavage kobs at 160 uM GlcN6P: < 1e-05 s⁻¹
[5]
  self-cleavage kobs at 2500 uM GlcN6P: 3.48e-05 ± 1.7e-05 s⁻¹

## A33U U49G
[1]
  kcat: 1.42e-05 ± 5.2e-07 s⁻¹
[2]
  KM: 44.7 ± 12 µM
[4]
  self-cleavage kobs at 160 uM GlcN6P: < 1e-05 s⁻¹
[7]
  self-cleavage kobs at 640 uM GlcN6P: < 1e-05 s⁻¹

## G38A U45A
[1]
  kcat: < 1e-05 s⁻¹
[7]
  self-cleavage kobs at 640 uM GlcN6P: < 1e-05 s⁻¹

## G37A U49G
[1]
  kcat: 7.59e-05 ± 1.4e-05 s⁻¹
[5]
  self-cleavage kobs at 2500 uM GlcN6P: 4.94e-05 ± 1.8e-05 s⁻¹
[6]
  self-cleavage kobs at 10000 uM GlcN6P: 6.04e-05 ± 1.3e-05 s⁻¹

## A33C C70G
[1]
  kcat: < 1e-05 s⁻¹
[4]
  self-cleavage kobs at 160 uM GlcN6P: < 1e-05 s⁻¹
[5]
  self-cleavage kobs at 2500 uM GlcN6P: < 1e-05 s⁻¹
[6]
  self-cleavage kobs at 10000 uM GlcN6P: < 1e-05 s⁻¹

## A33U A53G
[1]
  kcat: 3.38e-05 ± 6.8e-06 s⁻¹
[3]
  self-cleavage kobs at 40 uM GlcN6P: < 1e-05 s⁻¹
[5]
  self-cleavage kobs at 2500 uM GlcN6P: 3.39e-05 ± 1e-05 s⁻¹
[6]
  self-cleavage kobs at 10000 uM GlcN6P: 2.98e-05 ± 6.7e-06 s⁻¹

## G37U U54G
[1]
  kcat: < 1e-05 s⁻¹
[3]
  self-cleavage kobs at 40 uM GlcN6P: < 1e-05 s⁻¹
[4]
  self-cleavage kobs at 160 uM GlcN6P: < 1e-05 s⁻¹
[7]
  self-cleavage kobs at 640 uM GlcN6P: < 1e-05 s⁻¹

## G32A U47G
[1]
  kcat: 0.00115 ± 0.0003 s⁻¹
[2]
  KM: 3780 ± 1600 µM
[4]
  self-cleavage kobs at 160 uM GlcN6P: 5.19e-05 ± 1.5e-05 s⁻¹
[7]
  self-cleavage kobs at 640 uM GlcN6P: 0.000142 ± 3e-05 s⁻¹
[5]
  self-cleavage kobs at 2500 uM GlcN6P: 0.000687 ± 0.00015 s⁻¹
[6]
  self-cleavage kobs at 10000 uM GlcN6P: 0.000806 ± 0.00013 s⁻¹

## G32U G40C
[1]
  kcat: 0.000104 ± 1.3e-05 s⁻¹
[2]
  KM: 1250 ± 520 µM
[7]
  self-cleavage kobs at 640 uM GlcN6P: 2.66e-05 ± 1.3e-05 s⁻¹
[5]
  self-cleavage kobs at 2500 uM GlcN6P: 7.79e-05 ± 1.1e-05 s⁻¹
[6]
  self-cleavage kobs at 10000 uM GlcN6P: 8.66e-05 ± 1.3e-05 s⁻¹

## G32U G40U
[1]
  kcat: 0.000265 ± 3e-05 s⁻¹
[2]
  KM: 7170 ± 1300 µM
[7]
  self-cleavage kobs at 640 uM GlcN6P: 1.68e-05 ± 7.3e-06 s⁻¹
[5]
  self-cleavage kobs at 2500 uM GlcN6P: 7.08e-05 ± 7.2e-06 s⁻¹
[6]
  self-cleavage kobs at 10000 uM GlcN6P: 0.000153 ± 1.6e-05 s⁻¹

## A33U U55C C61A
[1]
  kcat: 1.69e-05 ± 5.1e-06 s⁻¹

## A33G C70A
[1]
  kcat: 1.84e-05 ± 4.6e-06 s⁻¹

## G38U C50G
[1]
  kcat: 4.08e-05 ± 1.4e-05 s⁻¹
[5]
  self-cleavage kobs at 2500 uM GlcN6P: 6.94e-05 ± 1.4e-05 s⁻¹

## G32C G37C
[1]
  kcat: < 1e-05 s⁻¹
[3]
  self-cleavage kobs at 40 uM GlcN6P: < 1e-05 s⁻¹
[6]
  self-cleavage kobs at 10000 uM GlcN6P: < 1e-05 s⁻¹

## G37C C61A
[1]
  kcat: < 1e-05 s⁻¹

## G37A U69C
[1]
  kcat: 0.0003 ± 5.9e-05 s⁻¹
[2]
  KM: 1170 ± 530 µM
[7]
  self-cleavage kobs at 640 uM GlcN6P: 0.000116 ± 2.2e-05 s⁻¹
[5]
  self-cleavage kobs at 2500 uM GlcN6P: 0.000167 ± 3.3e-05 s⁻¹
[6]
  self-cleavage kobs at 10000 uM GlcN6P: 0.000325 ± 5.8e-05 s⁻¹
